Patent publication US20200079833A1 (AstraZeneca / MedImmune, published 2020)
Starred links: 1 amine or outer side, 2 acyl side, 3 side chain; linkers in the order of their positions; H or OH if unused. Non-standard residues stand in square brackets, D forms with d. Groups on a side chain read outwards from the residue. No end group written: not given here. *: point of attachment. γGlu = O=C(O)[C@H](CCC(=O)[*:2])N[*:1]; Palmitoyl = CCCCCCCCCCCCCCCC(=O)*; αMeF = C[C@](N)(Cc1ccccc1)C(=O)O; αMeK = C[C@](N)(CCCCN)C(=O)O; αMeS = C[C@](N)(CO)C(=O)O; Aib = CC(C)(N)C(=O)O

T1: glucose-dependent insulinotropic peptide (gastric inhibitory polypeptide) receptor (GIPR) (human, UniProt P48546 22-466)
T1 sequence (looked up): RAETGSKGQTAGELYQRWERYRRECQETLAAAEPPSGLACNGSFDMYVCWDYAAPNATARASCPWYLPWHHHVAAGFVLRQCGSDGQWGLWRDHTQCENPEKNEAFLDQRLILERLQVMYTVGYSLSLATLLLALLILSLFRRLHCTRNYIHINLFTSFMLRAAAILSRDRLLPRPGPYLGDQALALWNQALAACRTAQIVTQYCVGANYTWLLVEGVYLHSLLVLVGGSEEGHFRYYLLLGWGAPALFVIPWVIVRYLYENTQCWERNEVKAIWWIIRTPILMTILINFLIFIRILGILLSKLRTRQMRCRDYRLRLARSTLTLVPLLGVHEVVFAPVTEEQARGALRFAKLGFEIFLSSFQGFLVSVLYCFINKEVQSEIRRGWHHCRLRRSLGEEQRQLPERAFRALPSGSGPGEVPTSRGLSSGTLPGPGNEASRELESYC

B1: SEQ ID NO 90 (peptide)
peptide: H[Aib]EGS[αMeF]TSDK([γGlu-Palmitoyl])[αMeS]S[αMeF]LEGEAA[αMeK]E[αMeF]IA[αMeF]VV[αMeK]GG-NH2
modifications: N-terminus assumed
SMILES: CCCCCCCCCCCCCCCC(=O)N[C@@H](CCC(=O)NCCCC[C@H](NC(=O)[C@H](CC(=O)O)NC(=O)[C@H](CO)NC(=O)[C@@H](NC(=O)[C@](C)(Cc1ccccc1)NC(=O)[C@H](CO)NC(=O)CNC(=O)[C@H](CCC(=O)O)NC(=O)C(C)(C)NC(=O)[C@@H](N)Cc1c[nH]cn1)[C@@H](C)O)C(=O)N[C@@](C)(CO)C(=O)N[C@@H](CO)C(=O)N[C@@](C)(Cc1ccccc1)C(=O)N[C@@H](CC(C)C)C(=O)N[C@@H](CCC(=O)O)C(=O)NCC(=O)N[C@@H](CCC(=O)O)C(=O)N[C@@H](C)C(=O)N[C@@H](C)C(=O)N[C@@](C)(CCCCN)C(=O)N[C@@H](CCC(=O)O)C(=O)N[C@@](C)(Cc1ccccc1)C(=O)N[C@H](C(=O)N[C@@H](C)C(=O)N[C@@](C)(Cc1ccccc1)C(=O)N[C@H](C(=O)N[C@H](C(=O)N[C@@](C)(CCCCN)C(=O)NCC(=O)NCC(N)=O)C(C)C)C(C)C)[C@@H](C)CC)C(=O)O
B2: SEQ ID NO 84 (peptide)
peptide: H[Aib]EGS[αMeF]TSDV[αMeS]S[αMeF]LEK([γGlu-Palmitoyl])EAA[αMeK]E[αMeF]IA[αMeF]VV[αMeK]GG-NH2
modifications: N-terminus assumed
SMILES: CCCCCCCCCCCCCCCC(=O)N[C@@H](CCC(=O)NCCCC[C@H](NC(=O)[C@H](CCC(=O)O)NC(=O)[C@H](CC(C)C)NC(=O)[C@](C)(Cc1ccccc1)NC(=O)[C@H](CO)NC(=O)[C@](C)(CO)NC(=O)[C@@H](NC(=O)[C@H](CC(=O)O)NC(=O)[C@H](CO)NC(=O)[C@@H](NC(=O)[C@](C)(Cc1ccccc1)NC(=O)[C@H](CO)NC(=O)CNC(=O)[C@H](CCC(=O)O)NC(=O)C(C)(C)NC(=O)[C@@H](N)Cc1c[nH]cn1)[C@@H](C)O)C(C)C)C(=O)N[C@@H](CCC(=O)O)C(=O)N[C@@H](C)C(=O)N[C@@H](C)C(=O)N[C@@](C)(CCCCN)C(=O)N[C@@H](CCC(=O)O)C(=O)N[C@@](C)(Cc1ccccc1)C(=O)N[C@H](C(=O)N[C@@H](C)C(=O)N[C@@](C)(Cc1ccccc1)C(=O)N[C@H](C(=O)N[C@H](C(=O)N[C@@](C)(CCCCN)C(=O)NCC(=O)NCC(N)=O)C(C)C)C(C)C)[C@@H](C)CC)C(=O)O
B3: SEQ ID NO 89 (peptide)
peptide: H[Aib]EGS[αMeF]TSDVK([γGlu-Palmitoyl])S[αMeF]LEGEAA[αMeK]E[αMeF]IA[αMeF]VV[αMeK]GG-NH2
modifications: N-terminus assumed
SMILES: CCCCCCCCCCCCCCCC(=O)N[C@@H](CCC(=O)NCCCC[C@H](NC(=O)[C@@H](NC(=O)[C@H](CC(=O)O)NC(=O)[C@H](CO)NC(=O)[C@@H](NC(=O)[C@](C)(Cc1ccccc1)NC(=O)[C@H](CO)NC(=O)CNC(=O)[C@H](CCC(=O)O)NC(=O)C(C)(C)NC(=O)[C@@H](N)Cc1c[nH]cn1)[C@@H](C)O)C(C)C)C(=O)N[C@@H](CO)C(=O)N[C@@](C)(Cc1ccccc1)C(=O)N[C@@H](CC(C)C)C(=O)N[C@@H](CCC(=O)O)C(=O)NCC(=O)N[C@@H](CCC(=O)O)C(=O)N[C@@H](C)C(=O)N[C@@H](C)C(=O)N[C@@](C)(CCCCN)C(=O)N[C@@H](CCC(=O)O)C(=O)N[C@@](C)(Cc1ccccc1)C(=O)N[C@H](C(=O)N[C@@H](C)C(=O)N[C@@](C)(Cc1ccccc1)C(=O)N[C@H](C(=O)N[C@H](C(=O)N[C@@](C)(CCCCN)C(=O)NCC(=O)NCC(N)=O)C(C)C)C(C)C)[C@@H](C)CC)C(=O)O
B4: SEQ ID NO 87 (peptide)
peptide: H[Aib]EGS[αMeF]TSDV[αMeS]SK([γGlu-Palmitoyl])LEGEAA[αMeK]E[αMeF]IA[αMeF]VV[αMeK]GG-NH2
modifications: N-terminus assumed
SMILES: CCCCCCCCCCCCCCCC(=O)N[C@@H](CCC(=O)NCCCC[C@H](NC(=O)[C@H](CO)NC(=O)[C@](C)(CO)NC(=O)[C@@H](NC(=O)[C@H](CC(=O)O)NC(=O)[C@H](CO)NC(=O)[C@@H](NC(=O)[C@](C)(Cc1ccccc1)NC(=O)[C@H](CO)NC(=O)CNC(=O)[C@H](CCC(=O)O)NC(=O)C(C)(C)NC(=O)[C@@H](N)Cc1c[nH]cn1)[C@@H](C)O)C(C)C)C(=O)N[C@@H](CC(C)C)C(=O)N[C@@H](CCC(=O)O)C(=O)NCC(=O)N[C@@H](CCC(=O)O)C(=O)N[C@@H](C)C(=O)N[C@@H](C)C(=O)N[C@@](C)(CCCCN)C(=O)N[C@@H](CCC(=O)O)C(=O)N[C@@](C)(Cc1ccccc1)C(=O)N[C@H](C(=O)N[C@@H](C)C(=O)N[C@@](C)(Cc1ccccc1)C(=O)N[C@H](C(=O)N[C@H](C(=O)N[C@@](C)(CCCCN)C(=O)NCC(=O)NCC(N)=O)C(C)C)C(C)C)[C@@H](C)CC)C(=O)O
B5: SEQ ID NO 88 (peptide)
peptide: HXEGSFTSDVSKFLEGEAAKEFIAFVVKGG
modifications: Aib 2; α-MeF 6, 13, 22, 25; α-MeS 11; α-MeK 20, 28; K(ε-γE-Palmitoyl) 12; C-terminal amide
B6: SEQ ID NO 85 (peptide)
peptide: H[Aib]EGS[αMeF]TSDV[αMeS]S[αMeF]LK([γGlu-Palmitoyl])GEAA[αMeK]E[αMeF]IA[αMeF]VV[αMeK]GG-NH2
modifications: N-terminus assumed
SMILES: CCCCCCCCCCCCCCCC(=O)N[C@@H](CCC(=O)NCCCC[C@H](NC(=O)[C@H](CC(C)C)NC(=O)[C@](C)(Cc1ccccc1)NC(=O)[C@H](CO)NC(=O)[C@](C)(CO)NC(=O)[C@@H](NC(=O)[C@H](CC(=O)O)NC(=O)[C@H](CO)NC(=O)[C@@H](NC(=O)[C@](C)(Cc1ccccc1)NC(=O)[C@H](CO)NC(=O)CNC(=O)[C@H](CCC(=O)O)NC(=O)C(C)(C)NC(=O)[C@@H](N)Cc1c[nH]cn1)[C@@H](C)O)C(C)C)C(=O)NCC(=O)N[C@@H](CCC(=O)O)C(=O)N[C@@H](C)C(=O)N[C@@H](C)C(=O)N[C@@](C)(CCCCN)C(=O)N[C@@H](CCC(=O)O)C(=O)N[C@@](C)(Cc1ccccc1)C(=O)N[C@H](C(=O)N[C@@H](C)C(=O)N[C@@](C)(Cc1ccccc1)C(=O)N[C@H](C(=O)N[C@H](C(=O)N[C@@](C)(CCCCN)C(=O)NCC(=O)NCC(N)=O)C(C)C)C(C)C)[C@@H](C)CC)C(=O)O
B7: SEQ ID NO 86 (peptide)
peptide: H[Aib]EGS[αMeF]TSDV[αMeS]S[αMeF]K([γGlu-Palmitoyl])EGEAA[αMeK]E[αMeF]IA[αMeF]VV[αMeK]GG-NH2
modifications: N-terminus assumed
SMILES: CCCCCCCCCCCCCCCC(=O)N[C@@H](CCC(=O)NCCCC[C@H](NC(=O)[C@](C)(Cc1ccccc1)NC(=O)[C@H](CO)NC(=O)[C@](C)(CO)NC(=O)[C@@H](NC(=O)[C@H](CC(=O)O)NC(=O)[C@H](CO)NC(=O)[C@@H](NC(=O)[C@](C)(Cc1ccccc1)NC(=O)[C@H](CO)NC(=O)CNC(=O)[C@H](CCC(=O)O)NC(=O)C(C)(C)NC(=O)[C@@H](N)Cc1c[nH]cn1)[C@@H](C)O)C(C)C)C(=O)N[C@@H](CCC(=O)O)C(=O)NCC(=O)N[C@@H](CCC(=O)O)C(=O)N[C@@H](C)C(=O)N[C@@H](C)C(=O)N[C@@](C)(CCCCN)C(=O)N[C@@H](CCC(=O)O)C(=O)N[C@@](C)(Cc1ccccc1)C(=O)N[C@H](C(=O)N[C@@H](C)C(=O)N[C@@](C)(Cc1ccccc1)C(=O)N[C@H](C(=O)N[C@H](C(=O)N[C@@](C)(CCCCN)C(=O)NCC(=O)NCC(N)=O)C(C)C)C(C)C)[C@@H](C)CC)C(=O)O

What was measured:
Assay in all cases: cell-based or functional assay
[1] = molecular target: GLP-1 receptor (GLP-1R) (human, UniProt P43220 24-463)
[2] = molecular target: glucagon receptor (GCGR) (human, UniProt P47871 26-477)
Sequence of glucagon receptor (GCGR) (P47871 26-477): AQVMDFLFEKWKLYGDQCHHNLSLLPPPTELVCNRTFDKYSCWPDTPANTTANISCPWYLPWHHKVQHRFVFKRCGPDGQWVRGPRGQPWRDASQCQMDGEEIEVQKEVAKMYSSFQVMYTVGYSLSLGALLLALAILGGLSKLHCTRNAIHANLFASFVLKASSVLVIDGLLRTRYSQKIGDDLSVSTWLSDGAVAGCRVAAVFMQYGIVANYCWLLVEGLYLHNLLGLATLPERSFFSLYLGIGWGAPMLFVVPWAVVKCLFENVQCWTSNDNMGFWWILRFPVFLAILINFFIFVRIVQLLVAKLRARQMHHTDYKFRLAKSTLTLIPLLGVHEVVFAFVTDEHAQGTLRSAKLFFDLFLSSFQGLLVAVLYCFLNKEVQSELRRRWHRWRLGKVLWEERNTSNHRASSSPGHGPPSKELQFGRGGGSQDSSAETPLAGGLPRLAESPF

[3] = molecular target: T1, glucose-dependent insulinotropic …

Row | Binder | cAMP Mean pM GLP-1R [1] | cAMP Primary assay EC50 GLP-1R n1 [1] | cAMP Primary assay EC50 GLP-1R n2 [1] | cAMP Primary assay EC50 Gluc-R [2] | cAMP Primary assay EC50 Gluc-R (2nd) [2] | cAMP Primary assay EC50 GIP-R [3] | cAMP Primary assay EC50 GIP-R (2nd) [3]
1 | B1 | 0.7 pM | 0.00068 nM | 0.00079 nM | 28 nM | 28 nM | 28 nM | 28 nM
2 | B2 | 8 pM | 0.0078 nM | 0.0081 nM | 27 nM | 27 nM | 27 nM | 27 nM
3 | B3 | 548 pM | 0.45 nM | 0.65 nM | 28 nM | 28 nM | 28 nM | 28 nM
4 | B4 | 1.6 pM | 0.0016 nM | 0.0016 nM | 28 nM | 28 nM | 28 nM | 28 nM
5 | B5 | 5 pM | 0.0043 nM | 0.0057 nM | 28 nM | 28 nM | 28 nM | 28 nM
6 | B6 | 101 pM | 0.066 nM | 0.14 nM | 28 nM | 28 nM | 28 nM | 28 nM
7 | B7 | 1.5 pM | 0.0013 nM | 0.0017 nM | 28 nM | 28 nM | 28 nM | 28 nM
